According to patent US20090155236A1, “Peptide sequence for modulation of delta protein kinase c” (NATIONAL INSTITUES OF HEALTH (NIH), U.S. DEPT OF HEALTH AND …, priority 2004, published 2009):

Biological target: recombinant full-length delta PKC (rat)
Test: ELISA, both in the absence and in the presence of calcium

B1: annexin I (protein)
chain: AMVSEFLKQAWFIENEEQEYVQTVKSSKGGPGSAVSPYPTFNPSSDVAALHKAIMVKGVDEATIIDILTKRNNAQRQQIKAAYLQETGKPLDETLKKALTGHLEEVVLALLKTPAQFDADELRAAMKGLGTDEDTLIEILASRTNKEIRDINRVYREELKRDLAKDITSDTSGDFRNALLSLAKGDRSEDFGVNEDLADSDARALYEAGERRKGTDVNVFNTILTTRSYPQLRRVFQKYTKYSKHDMNKVLDLELKGDIEKCLTAIVKCATSKPAFFAEKLHQAMKGVGTRHKALIRIMVSRSEIDMNDIKAFYQKMYGISLCQAILDETKGDYEKILVALCGGN
percent binding: 70%
